The values below come from the supplement of paper PMC5998384.

Data set [1] relates to HeLa Kyoto. Briefly: solubility in G1/S (NP-40 vs SDS abundance) (log2 ratio); higher = more soluble. The note with it: cell cycle stage: G1/S.
Data set [2] concerns HeLa Kyoto. Briefly: melting temperature (median over replicates), in situ; higher = more thermally stable.
The test system of data set [3] is HeLa Kyoto. As to the kind of experiment: solubility change mitosis vs G1/S (difference of NP-40 vs SDS log2 ratios) (log2 ratio difference); higher = more soluble in mitosis.
Data set [4] deals with HeLa Kyoto. Briefly: thermal stability score vs G1/S (z-score of summed log2 fold changes over temperatures); higher = more thermally stable than in G1/S.
The mark [5] stands for this setting: cell cycle stage: early G1 (4.5 h after nocodazole release).
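Throughout, for melting temperature (median over replicates), in situ: HeLa Kyoto cells synchronized by double thymidine or nocodazole block, proteins quantified by TMT10plex mass spectrometry, three independent biological replicates.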
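Throughout, for solubility change mitosis vs G1/S (difference of NP-40 vs SDS log2 ratios): synchronized HeLa Kyoto cells (double thymidine block for G1/S, nocodazole release for mitosis), protein amounts in NP-40 versus SDS lysates quantified by mass spectrometry, three biological replicates.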
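Throughout, for solubility in G1/S (NP-40 vs SDS abundance): HeLa Kyoto cells arrested at G1/S by double thymidine block, proteins quantified by TMT10plex mass spectrometry in mild NP-40 versus SDS extracts, three biological replicates.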
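Throughout, for thermal stability score vs G1/S (z-score of summed log2 fold changes over temperatures): synchronized HeLa Kyoto cells, proteins quantified by TMT10plex mass spectrometry, three biological replicates, mitosis taken 0.5 h after nocodazole release, G1/S directly after double thymidine block.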

In the case of “MKQLPVLEPGDKPRKATWYTLTVPGDSPCARVGHSCSYLPPVGNAKRGKVFIVGGANPNRSFSDVHTMDLGKHQWDLDTCKGLLPRYEHASFIPSCTPDRIWVFGGANQSGNRNCLQVLNPETRTWTTPEVTSPPPSPRTFHTSSAAIGNQLYVFGGGERGAQPVQDTKLHVFDANTLTWSQPETLGNPPSPRHGHVMVAAGTKLFIHGGLAGDRFYDDLHCIDISDMKWQKLNPTGAAPAGCAAHSAVAMGKHVYIFGGMTPAGALDTMYQYHTEEQHWTLLKFDTLLPPGRLDHSMCIIPWPVTCASEKEDSNSLTLNHEAEKEDSADKVMSHSGDSHEESQTATLLCLVFGGMNTEGEIYDDCIVTVVD [RABEPK]”, the “solubility in G1/S (log2)” value in data set [1] was 0.201. In addition, the melting temperature in data set [2] (cell cycle stage: G1/S) was found to be 56.5 °C; in data set [2] (cell cycle stage: mitosis), 56 °C. The “solubility change mitosis (log2)” value in data set [3] was -0.084. For the same substance, the values for the thermal stability score in data set [4] (setting [5]) and in data set [4] (cell cycle stage: mitosis) were -1.33 and -1.94, respectively.

As for “MSGVRAVRISIESACEKQVHEVGLDGTETYLPPLSMSQNLARLAQRIDFSQGSGSEEEEAAGTEGDAQEWPGAGSSADQDDEEGVVKFQPSLWPWDSVRNNLRSALTEMCVLYDVLSIVRDKKFMTLDPVSQDALPPKQNPQTLQLISKKKSLAGAAQILLKGAERLTKSVTENQENKLQRDFNSELLRLRQHWKLRKVGDKILGDLSYRSAGSLFPHHGTFEVIKNTDLDLDKKIPEDYCPLDVQIPSDLEGSAYIKVSIQKQAPDIGDLGTVNLFKRPLPKSKPGSPHWQTKLEAAQNVLLCKEIFAQLSREAVQIKSQVPHIVVKNQIISQPFPSLQLSISLCHSSNDKKSQKFATEKQCPEDHLYVLEHNLHLLIREFHKQTLSSIMMPHPASAPFGHKRMRLSGPQAFDKNEINSLQSSEGLLEKIIKQAKHIFLRSRAAATIDSLASRIEDPQIQAHWSNINDVYESSVKVLITSQGYEQICKSIQLQLNIGVEQIRVVHRDGRVITLSYQEQELQDFLLSQMSQHQVHAVQQLAKVMGWQVLSFSNHVGLGPIESIGNASAITVASPSGDYAISVRNGPESGSKIMVQFPRNQCKDLPKSDVLQDNKWSHLRGPFKEVQWNKMEGRNFVYKMELLMSALSPCLL [MED17]”, the “solubility in G1/S (log2)” value in data set [1] worked out at 0.0389. In addition, the melting temperature was found to be 50.4 °C in data set [2] (cell cycle stage: G1/S) and 49.7 °C in data set [2] (cell cycle stage: mitosis). Besides, the “solubility change mitosis (log2)” value in data set [3] is -0.0898. Further, the thermal stability score was found to be 0.0203 in data set [4] (setting [5]) and 0.644 in data set [4] (cell cycle stage: mitosis).

With SMCHD1, the “solubility in G1/S (log2)” value in data set [1] is -0.216. The melting temperature in data set [2] (cell cycle stage: G1/S) worked out at 47.4 °C; in data set [2] (cell cycle stage: mitosis) it was 48.7 °C. Besides, the “solubility change mitosis (log2)” value in data set [3] is -0.104. Moreover, the figures for the thermal stability score in data set [4] (setting [5]) and in data set [4] (cell cycle stage: mitosis) were 3.02 and 5.78, respectively.

As to “MDNLSDTLKKLKITAVDKTEDSLEGCLDCLLQALAQNNTETSEKIQASGILQLFASLLTPQSSCKAKVANIIAEVAKNEFMRIPCVDAGLISPLVQLLNSKDQEVLLQTGRALGNICYDSHEGRSAVDQAGGAQIVIDHLRSLCSITDPANEKLLTVFCGMLMNYSNENDSLQAQLINMGVIPTLVKLLGIHCQNAALTEMCLVAFGNLAELESSKEQFASTNIAEELVKLFKKQIEHDKREMIFEVLAPLAENDAIKLQLVEAGLVECLLEIVQQKVDSDKEDDITELKTGSDLMVLLLLGDESMQKLFEGGKGSVFQRVLSWIPSNNHQLQLAGALAIANFARNDANCIHMVDNGIVEKLMDLLDRHVEDGNVTVQHAALSALRNLAIPVINKAKMLSAGVTEAVLKFLKSEMPPVQFKLLGTLRMLIDAQAEAAEQLGKNVKLVERLVEWCEAKDHAGVMGESNRLLSALIRHSKSKDVIKTIVQSGGIKHLVTMATSEHVIMQNEALVALALIAALELGTAEKDLESAKLVQILHRLLADERSAPEIKYNSMVLICALMGSECLHKEVQDLAFLDVVSKLRSHENKSVAQQASLTEQRLTVES [RAP1GDS1]”, in data set [1], the “solubility in G1/S (log2)” value was 0.111. In addition, the values for the melting temperature in data set [2] (cell cycle stage: G1/S) and in data set [2] (cell cycle stage: mitosis) were 50.2 °C and 49.8 °C, respectively. Further, the “solubility change mitosis (log2)” value in data set [3] is -0.0374. In addition, the thermal stability score in data set [4] (setting [5]) is 1.29; in data set [4] (cell cycle stage: mitosis), 1.87.

On to “MAAEQDPEARAAARPLLTDLYQATMALGYWRAGRARDAAEFELFFRRCPFGGAFALAAGLRDCVRFLRAFRLRDADVQFLASVLPPDTDPAFFEHLRALDCSEVTVRALPEGSLAFPGVPLLQVSGPLLVVQLLETPLLCLVSYASLVATNAARLRLIAGPEKRLLEMGLRRAQGPDGGLTASTYSYLGGFDSSSNVLAGQLRGVPVAGTLAHSFVTSFSGSEVPPDPMLAPAAGEGPGVDLAAKAQVWLEQVCAHLGLGVQEPHPGERAAFVAYALAFPRAFQGLLDTYSVWRSGLPNFLAVALALGELGYRAVGVRLDSGDLLQQAQEIRKVFRAAAAQFQVPWLESVLIVVSNNIDEEALARLAQEGSEVNVIGIGTSVVTCPQQPSLGGVYKLVAVGGQPRMKLTEDPEKQTLPGSKAAFRLLGSDGSPLMDMLQLAEEPVPQAGQELRVWPPGAQEPCTVRPAQVEPLLRLCLQQGQLCEPLPSLAESRALAQLSLSRLSPEHRRLRSPAQYQVVLSERLQALVNSLCAGQSP [NAPRT]”, for which, in data set [1], the “solubility in G1/S (log2)” value worked out at 0.352. For the same substance, the figures for the melting temperature in data set [2] (cell cycle stage: G1/S) and in data set [2] (cell cycle stage: mitosis) were 56.9 °C and 56.7 °C, respectively. In data set [3], the “solubility change mitosis (log2)” value is -0.0823. The thermal stability score in data set [4] (setting [5]) is 0.14; in data set [4] (cell cycle stage: mitosis), -1.8.

With “MAASRPLSRFWEWGKNIVCVGRNYADHVREMRSAVLSEPVLFLKPSTAYAPEGSPILMPAYTRNLHHELELGVVMGKRCRAVPEAAAMDYVGGYALCLDMTARDVQDECKKKGLPWTLAKSFTASCPVSAFVPKEKIPDPHKLKLWLKVNGELRQEGETSSMIFSIPYIISYVSKIITLEEGDIILTGTPKGVGPVKENDEIEAGIHGLVSMTFKVEKPEY [FAHD1]”, the “solubility in G1/S (log2)” value in data set [1] was 0.144. In addition, the melting temperature is 53.5 °C in data set [2] (cell cycle stage: G1/S) and 60 °C in data set [2] (cell cycle stage: mitosis). The “solubility change mitosis (log2)” value in data set [3] was -0.257. In addition, the thermal stability score is -1.32 in data set [4] (setting [5]) and -1.65 in data set [4] (cell cycle stage: mitosis).

Regarding “MAEPQPPSGGLTDEAALSCCSDADPSTKDFLLQQTMLRVKDPKKSLDFYTRVLGMTLIQKCDFPIMKFSLYFLAYEDKNDIPKEKDEKIAWALSRKATLELTHNWGTEDDETQSYHNGNSDPRGFGHIGIAVPDVYSACKRFEELGVKFVKKPDDGKMKGLAFIQDPDGYWIEILNPNKMATLM [GLO1]”, in data set [1], the “solubility in G1/S (log2)” value amounted to 0.117. Moreover, the melting temperature was 55.8 °C in data set [2] (cell cycle stage: G1/S) and 54.5 °C in data set [2] (cell cycle stage: mitosis). Moreover, the “solubility change mitosis (log2)” value in data set [3] came out at 0.168. The thermal stability score was -0.959 in data set [4] (setting [5]) and -4.08 in data set [4] (cell cycle stage: mitosis).
